According to the supplement of paper PMC5998384:

Assays:
HeLa Kyoto [1] = test: thermal stability score vs G1/S (z-score of summed log2 fold changes over temperatures); higher = more thermally stable than in G1/S
HeLa Kyoto [2] = test: solubility in G1/S (NP-40 vs SDS abundance) (log2 ratio); higher = more soluble; details: cell cycle stage: G1/S
HeLa Kyoto [3] = test: melting temperature (median over replicates), in situ; higher = more thermally stable
HeLa Kyoto [4] = test: solubility change mitosis vs G1/S (difference of NP-40 vs SDS log2 ratios) (log2 ratio difference); higher = more soluble in mitosis
[5] = cell cycle stage: early G1 (4.5 h after nocodazole release)
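Throughout, for melting temperature (median over replicates), in situ: HeLa Kyoto cells synchronized by double thymidine or nocodazole block, proteins quantified by TMT10plex mass spectrometry, three independent biological replicates.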
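Throughout, for solubility change mitosis vs G1/S (difference of NP-40 vs SDS log2 ratios): synchronized HeLa Kyoto cells (double thymidine block for G1/S, nocodazole release for mitosis), protein amounts in NP-40 versus SDS lysates quantified by mass spectrometry, three biological replicates.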
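Throughout, for solubility in G1/S (NP-40 vs SDS abundance): HeLa Kyoto cells arrested at G1/S by double thymidine block, proteins quantified by TMT10plex mass spectrometry in mild NP-40 versus SDS extracts, three biological replicates.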
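Throughout, for thermal stability score vs G1/S (z-score of summed log2 fold changes over temperatures): synchronized HeLa Kyoto cells, proteins quantified by TMT10plex mass spectrometry, three biological replicates, mitosis taken 0.5 h after nocodazole release, G1/S directly after double thymidine block.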

Sequence of MTR (chain, as listed by the source): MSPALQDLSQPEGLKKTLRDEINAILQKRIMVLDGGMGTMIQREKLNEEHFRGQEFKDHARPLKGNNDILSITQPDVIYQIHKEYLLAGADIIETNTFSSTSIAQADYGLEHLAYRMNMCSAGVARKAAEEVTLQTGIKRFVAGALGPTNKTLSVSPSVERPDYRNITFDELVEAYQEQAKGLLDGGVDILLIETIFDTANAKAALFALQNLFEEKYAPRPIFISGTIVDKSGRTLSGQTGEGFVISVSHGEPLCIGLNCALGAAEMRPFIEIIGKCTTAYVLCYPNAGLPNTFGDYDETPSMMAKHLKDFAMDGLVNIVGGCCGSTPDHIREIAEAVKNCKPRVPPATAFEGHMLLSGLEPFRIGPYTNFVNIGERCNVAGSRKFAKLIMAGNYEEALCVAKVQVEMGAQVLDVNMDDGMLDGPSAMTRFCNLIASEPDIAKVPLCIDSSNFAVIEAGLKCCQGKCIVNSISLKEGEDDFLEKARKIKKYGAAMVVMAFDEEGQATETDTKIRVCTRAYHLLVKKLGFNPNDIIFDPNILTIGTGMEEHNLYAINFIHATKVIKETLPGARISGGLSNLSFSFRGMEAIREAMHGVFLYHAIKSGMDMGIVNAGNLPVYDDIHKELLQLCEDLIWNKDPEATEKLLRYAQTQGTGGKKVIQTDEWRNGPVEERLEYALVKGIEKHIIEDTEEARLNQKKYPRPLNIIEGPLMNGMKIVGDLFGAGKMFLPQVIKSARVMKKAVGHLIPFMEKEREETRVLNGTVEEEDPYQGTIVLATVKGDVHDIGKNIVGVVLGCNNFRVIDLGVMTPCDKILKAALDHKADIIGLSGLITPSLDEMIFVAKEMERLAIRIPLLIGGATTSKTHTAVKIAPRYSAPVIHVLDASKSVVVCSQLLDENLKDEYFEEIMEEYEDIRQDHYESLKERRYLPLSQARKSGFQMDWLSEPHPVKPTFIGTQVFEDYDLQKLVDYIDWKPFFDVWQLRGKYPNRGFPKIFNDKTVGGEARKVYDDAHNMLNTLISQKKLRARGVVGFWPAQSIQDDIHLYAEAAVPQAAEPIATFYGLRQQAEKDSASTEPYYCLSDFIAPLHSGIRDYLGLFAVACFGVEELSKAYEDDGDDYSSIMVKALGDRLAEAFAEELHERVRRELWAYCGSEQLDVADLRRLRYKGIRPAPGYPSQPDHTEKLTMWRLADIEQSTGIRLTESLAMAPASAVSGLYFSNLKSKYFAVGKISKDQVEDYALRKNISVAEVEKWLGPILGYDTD

| Substance | thermal stability score (HeLa Kyoto [1]; [5]) | thermal stability score (HeLa Kyoto [1]; cell cycle stage: mitosis) | solubility in G1/S (log2) (HeLa Kyoto [2]) | melting temperature (HeLa Kyoto [3]; cell cycle stage: G1/S) [°C] | melting temperature (HeLa Kyoto [3]; cell cycle stage: mitosis) [°C] | solubility change mitosis (log2) (HeLa Kyoto [4]) |
| --- | --- | --- | --- | --- | --- | --- |
| MTEGTCLRRRGGPYKTEPATDLGRWRLNCERGRQTWTYLQDERAGREQTGLEAYALGLDTKNYFKDLPKAHTAFEGALNGMTFYVGLQAEDGHWTGDYGGPLFLLPGLLITCHVARIPLPAGYREEIVRYLRSVQLPDGGWGLHIEDKSTVFGTALNYVSLRILGVGPDDPDLVRARNILHKKGGAVAIPSWGKFWLAVLNVYSWEGLNTLFPEMWLFPDWAPAHPSTLWCHCRQVYLPMSYCYAVRLSAAEDPLVQSLRQELYVEDFASIDWLAQRNNVAPDELYTPHSWLLRVVYALLNLYEHHHSAHLRQRAVQKLYEHIVADDRFTKSISIGPISKTINMLVRWYVDGPASTAFQEHVSRIPDYLWMGLDGMKMQGTNGSQIWDTAFAIQALLEAGGHHRPEFSSCLQKAHEFLRLSQVPDNPPDYQKYYRQMRKGGFSFSTLDCGWIVSDCTAEALKAVLLLQEKCPHVTEHIPRERLCDAVAVLLNMRNPDGGFATYETKRGGHLLELLNPSEVFGDIMIDYTYVECTSAVMQALKYFHKRFPEHRAAEIRETLTQGLEFCRRQQRADGSWEGSWGVCFTYGTWFGLEAFACMGQTYRDGTACAEVSRACDFLLSRQMADGGWGEDFESCEERRYLQSAQSQIHNTCWAMMGLMAVRHPDIEAQERGVRCLLEKQLPNGDWPQENIAGVFNKSCAISYTSYRNIFPIWALGRFSQLYPERALAGHP [LSS] | 0.214 | 0.242 | -0.253 | 52.7 | 52.6 | 0.0123 |
| MTFYLFGIRSFPKLWKSPYLGLGPGHSYVSLFLADRCGIRNQQRLFSLKTMSPQNTKATNLIAKARYLRKDEGSNKQVYSVPHFFLAGAAKERSQMNSQTEDHALAPVRNTIQLPTQPLNSEEWDKLKEDLKENTGKTSFESWIISQMAGCHSSIDVAKSLLAWVAAKNNGIVSYDLLVKYLYLCVFHMQTSEVIDVFEIMKARYKTLEPRGYSLLIRGLIHSDRWREALLLLEDIKKVITPSKKNYNDCIQGALLHQDVNTAWNLYQELLGHDIVPMLETLKAFFDFGKDIKDDNYSNKLLDILSYLRNNQLYPGESFAHSIKTWFESVPGKQWKGQFTTVRKSGQCSGCGKTIESIQLSPEEYECLKGKIMRDVIDGGDQYRKTTPQELKRFENFIKSRPPFDVVIDGLNVAKMFPKVRESQLLLNVVSQLAKRNLRLLVLGRKHMLRRSSQWSRDEMEEVQKQASCFFADDISEDDPFLLYATLHSGNHCRFITRDLMRDHKACLPDAKTQRLFFKWQQGHQLAIVNRFPGSKLTFQRILSYDTVVQTTGDSWHIPYDEDLVERCSCEVPTKWLCLHQKT [KIAA0391] | 0.296 | 1.88 | 0.189 | 47.8 | 48.4 | -0.118 |
| MTHWFHRNPLKATAPVSFNYYGVVTGPSASKICNDLRSSRARLLELFTDLSCNPEMMKNAADSYFSLLQGFINSLDESTQESKLRYIQNFKWTDTLQGQVPSAQQDAVFELISMGFNVALWYTKYASRLAGKENITEDEAKEVHRSLKIAAGIFKHLKESHLPKLITPAEKGRDLESRLIEAYVIQCQAEAQEVTIARAIELKHAPGLIAALAYETANFYQKADHTLSSLEPAYSAKWRKYLHLKMCFYTAYAYCYHGETLLASDKCGEAIRSLQEAEKLYAKAEALCKEYGETKGPGPTVKPSGHLFFRKLGNLVKNTLEKCQRENGFIYFQKIPTEAPQLELKANYGLVEPIPFEFPPTSVQWTPETLAAFDLTKRPKDDSTKPKPEEEVKPVKEPDIKPQKDTGCYIS [BROX] | -0.298 | 0.407 | 0.511 | 49.6 | 49.8 | -0.114 |
| MTILPKKKPPPPDADPANEPPPPGPMPPAPRRGGGVGVGGGGTGVGGGDRDRDSGVVGARPRASPPPQGPLPGPPGALHRWALAVPPGAVAGPRPQQASPPPCGGPGGPGGGPGDALGAAAAGVGAAGVVVGVGGAVGVGGCCSGPGHSKRRRQAPGVGAVGGGSPEREEVGAGYNSEDEYEAAAARIEAMDPATVEQQEHWFEKALRDKKGFIIKQMKEDGACLFRAVADQVYGDQDMHEVVRKHCMDYLMKNADYFSNYVTEDFTTYINRKRKNNCHGNHIEMQAMAEMYNRPVEVYQYSTGTSAVEPINTFHGIHQNEDEPIRVSYHRNIHYNSVVNPNKATIGVGLGLPSFKPGFAEQSLMKNAIKTSEESWIEQQMLEDKKRATDWEATNEAIEEQVARESYLQWLRDQEKQARQVRGPSQPRKASATCSSATAAASSGLEEWTSRSPRQRSSASSPEHPELHAELGMKPPSPGTVLALAKPPSPCAPGTSSQFSAGADRATSPLVSLYPALECRALIQQMSPSAFGLNDWDDDEILASVLAVSQQEYLDSMKKNKVHRDPPPDKS [OTUD5] | -1.93 | 0.592 | 0.259 | 51.6 | 52.4 | 0.178 |
| MTKSNGEEPKMGGRMERFQQGVRKRTLLAKKKVQNITKEDVKSYLFRNAFVLLTVTAVIVGTILGFTLRPYRMSYREVKYFSFPGELLMRMLQMLVLPLIISSLVTGMAALDSKASGKMGMRAVVYYMTTTIIAVVIGIIIVIIIHPGKGTKENMHREGKIVRVTAADAFLDLIRNMFPPNLVEACFKQFKTNYEKRSFKVPIQANETLVGAVINNVSEAMETLTRITEELVPVPGSVNGVNALGLVVFSMCFGFVIGNMKEQGQALREFFDSLNEAIMRLVAVIMWYAPVGILFLIAGKIVEMEDMGVIGGQLAMYTVTVIVGLLIHAVIVLPLLYFLVTRKNPWVFIGGLLQALITALGTSSSSATLPITFKCLEENNGVDKRVTRFVLPVGATINMDGTALYEALAAIFIAQVNNFELNFGQIITISITATAASIGAAGIPQAGLVTMVIVLTSVGLPTDDITLIIAVDWFLDRLRTTTNVLGDSLGAGIVEHLSRHELKNRDVEMGNSVIEENEMKKPYQLIAQDNETEKPIDSETKM [SLC1A3] | -4.57 | -5.19 | -0.131 | 61.8 | 58 | 0.0284 |
| MTLDMDAVLSDFVRSTGAEPGLARDLLEGKNWDVNAALSDFEQLRQVHAGNLPPSFSEGSGGSRTPEKGFSDREPTRPPRPILQRQDDIVQEKRLSRGISHASSSIVSLARSHVSSNGGGGGSNEHPLEMPICAFQLPDLTVYNEDFRSFIERDLIEQSMLVALEQAGRLNWWVSVDPTSQRLLPLATTGDGNCLLHAASLGMWGFHDRDLMLRKALYALMEKGVEKEALKRRWRWQQTQQNKESGLVYTEDEWQKEWNELIKLASSEPRMHLGTNGANCGGVESSEEPVYESLEEFHVFVLAHVLRRPIVVVADTMLRDSGGEAFAPIPFGGIYLPLEVPASQCHRSPLVLAYDQAHFSALVSMEQKENTKEQAVIPLTDSEYKLLPLHFAVDPGKGWEWGKDDSDNVRLASVILSLEVKLHLLHSYMNVKWIPLSSDAQAPLAQPESPTASAGDEPRSTPESGDSDKESVGSSSTSNEGGRRKEKSKRDREKDKKRADSVANKLGSFGKTLGSKLKKNMGGLMHSKGSKPGGVGTGLGGSSGTETLEKKKKNSLKSWKGGKEEAAGDGPVSEKPPAESVGNGGSKYSQEVMQSLSILRTAMQGEGKFIFVGTLKMGHRHQYQEEMIQRYLSDAEERFLAEQKQKEAERKIMNGGIGGGPPPAKKPEPDAREEQPTGPPAESRAMAFSTGYPGDFTIPRPSGGGVHCQEPRRQLAGGPCVGGLPPYATFPRQCPPGRPYPHQDSIPSLEPGSHSKDGLHRGALLPPPYRVADSYSNGYREPPEPDGWAGGLRGLPPTQTKCKQPNCSFYGHPETNNFCSCCYREELRRREREPDGELLVHRF [OTUD7B] | 0.347 | 0.243 | 0.376 | 50.8 | 50.9 | -0.0993 |
| MTLESMMACCLSDEVKESKRINAEIEKQLRRDKRDARRELKLLLLGTGESGKSTFIKQMRIIHGAGYSEEDKRGFTKLVYQNIFTAMQAMIRAMETLKILYKYEQNKANALLIREVDVEKVTTFEHQYVSAIKTLWEDPGIQECYDRRREYQLSDSAKYYLTDVDRIATLGYLPTQQDVLRVRVPTTGIIEYPFDLENIIFRMVDVGGQRSERRKWIHCFENVTSIMFLVALSEYDQVLVESDNENRMEESKALFRTIITYPWFQNSSVILFLNKKDLLEDKILYSHLVDYFPEFDGPQRDAQAAREFILKMFVDLNPDSDKIIYSHFTCATDTENIRFVFAAVKDTILQLNLKEYNLV [GNA11] | 0.848 | 0.911 | -0.276 | 51.1 | 50.6 | -0.121 |
| MTMDKSELVQKAKLAEQAERYDDMAAAMKAVTEQGHELSNEERNLLSVAYKNVVGARRSSWRVISSIEQKTERNEKKQQMGKEYREKIEAELQDICNDVLELLDKYLIPNATQPESKVFYLKMKGDYFRYLSEVASGDNKQTTVSNSQQAYQEAFEISKKEMQPTHPIRLGLALNFSVFYYEILNSPEKACSLAKTAFDEAIAELDTLNEESYKDSTLIMQLLRDNLTLWTSENQGDEGDAGEGEN [YWHAB] | -1.46 | -2.76 | 0.324 | 52.6 | 52.8 | 0.402 |
| MTPSQVAFEIRGTLLPGEVFAICGSCDALGNWNPQNAVALLPENDTGESMLWKATIVLSRGVSVQYRYFKGYFLEPKTIGGPCQVIVHKWETHLQPRSITPLESEIIIDDGQFGIHNGVETLDSGWLTCQTEIRLRLHYSEKPPVSITKKKLKKSRFRVKLTLEGLEEDDDDRVSPTVLHKMSNSLEISLISDNEFKCRHSQPECGYGLQPDRWTEYSIQTMEPDNLELIFDFFEEDLSEHVVQGDALPGHVGTACLLSSTIAESGKSAGILTLPIMSRNSRKTIGKVRVDYIIIKPLPGYSCDMKSSFSKYWKPRIPLDVGHRGAGNSTTTAQLAKVQENTIASLRNAASHGAAFVEFDVHLSKDFVPVVYHDLTCCLTMKKKFDADPVELFEIPVKELTFDQLQLLKLTHVTALKSKDRKESVVQEENSFSENQPFPSLKMVLESLPEDVGFNIEIKWICQQRDGMWDGNLSTYFDMNLFLDIILKTVLENSGKRRIVFSSFDADICTMVRQKQNKYPILFLTQGKSEIYPELMDLRSRTTPIAMSFAQFENLLGINVHTEDLLRNPSYIQEAKAKGLVIFCWGDDTNDPENRRKLKELGVNGLIYDRIYDWMPEQPNIFQVEQLERLKQELPELKSCLCPTVSRFVPSSLCGESDIHVDANGIDNVENA [GPCPD1] | -0.29 | -0.26 | 0.0477 | 50 | 50.6 | -0.12 |
| MTQAEIKLCSLLLQEHFGEIVEKIGVHLIRTGSQPLRVIAHDTGTSLDQVKKALCVLVQHNLVSYQVHKRGVVEYEAQCSRVLRMLRYPRYIYTTKTLYSDTGELIVEELLLNGKLTMSAVVKKVADRLTETMEDGKTMDYAEVSNTFVRLADTHFVQRCPSVPTTENSDPGPPPPAPTLVINEKDMYLVPKLSLIGKGKRRRSSDEDAAGEPKAKRPKYTTDNKEPIPDDGIYWQANLDRFHQHFRDQAIVSAVANRMDQTSSEIVRTMLRMSEITTSSSAPFTQPLSSNEIFRSLPVGYNISKQVLDQYLTLLADDPLEFVGKSGDSGGGMYVINLHKALASLATATLESVVQERFGSRCARIFRLVLQKKHIEQKQVEDFAMIPAKEAKDMLYKMLSENFMSLQEIPKTPDHAPSRTFYLYTVNILSAARMLLHRCYKSIANLIERRQFETKENKRLLEKSQRVEAIIASMQATGAEEAQLQEIEEMITAPERQQLETLKRNVNKLDASEIQVDETIFLLESYIECTMKRQ [POLR3C] | 1.65 | 1.67 | 0.132 | 50.5 | 51.1 | -0.0973 |
| MTR | -0.177 | 0.37 | 0.00491 | 48.6 | 49.9 | -0.144 |
